Test results taken from the nanobody polyreactivity screen of Harvey et al. (2022).

assay: yeast display, Sf9 membrane polyspecificity reagent, FACS + sequencing; frameworks hold sequencing errors
Summary of the method: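 Galactose induction of a Saccharomyces cerevisiae BJ5465 synthetic nanobody display library ran 36–48 hours. The cells were then stained for 1 hour at 4 °C with 10% biotinylated, detergent-solubilized Sf9 membrane reagent, pulled down on streptavidin microbeads and FACS-sorted into low and high (top ~1%) gates on expression and reagent-binding fluorescence. Labels for polyreactivity follow the gate of origin.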

Row | Sequence | polyreactivity (PSR sort gate)
1 | QVQLVESGGGLVQAGGSLRLSCAASGITFETYAMGWYRPAPGTVRELVAAISSGTDDTYYADSVKGRFTISRDNATNTVYLQMNSLKPEDTAVYYCAALGYATGSWRYYYWGQGTQVTVSS | low polyreactivity
2 | QVQLVESGGGLVQAGGSLRLSCAASGITFEYFDRGWYRQAPGKERELVAAISWSTDITYADSVKGRFTISRDNAKNTVYLQMNSLKPEDTAVYYCAASTYEYTSYDYWGQGTQVTVSS | low polyreactivity
3 | QVQLVESGGGLVQAGGSLRLSCAASGITFEYYTMGWYRQAPGKERELVAAITQGGGTTYYADSVKGRFTISRDNAKNTVYLQMNSLKPEDTAVYYCAAYVGYLLLYYPTYYYWGQGTQVTVSS | low polyreactivity
4 | QVQLVESGGGLVQAGGSLRLSCAASGITFFDYAMGWYIQAPGKERELVAAIDLSDGRTYYADSVKGRFTISRDNAKNTVYLQMNSLKPEDTAVYYCARQHEDYVYYWYYWYDYDYWGQGTQVTVSS | low polyreactivity
5 | QVQLVESGGGLVQAGGSLRLSCAASGITFFDYAMGWYRQAPGKERELFAAIDLSDGRTYYADSVKGRFTISRDNAKNTVYLQMNSLKPEDTAVYYCNADSFLSWVYRYVYYGSGYWGQGTQVTVSS | low polyreactivity
6 | QVQLVESGGGLVQAGGSLRLSCAASGITFFFNAMGWYRQAPGKERELVAAITSGGGSTYYADSVKGRFTISRDNAKNTVYLQMNSLKPEDTAVYYCNADFSKSYDYWGQGTQVTVSS | low polyreactivity
7 | QVQLVESGGGLVQAGGSLRLSCAASGITFFQYAMGWSRQAPGKERELVAAISRSGSRTYYADSVKGRFTISRDNAKNTVYLQLNSLKQEDTAVYYCAAARVNDHYGYYRQMNYWGQCTQVTVSS | high polyreactivity
8 | QVQLVESGGGLVQAGGSLRLSCAASGITFFRYAMGWYRQAPGKERELVAAISSSGGSTYYADSVKGRFTISRDNAKNTVYLQMNSLKPEDTAVYYCAAAHGYRYYWGQGTQVTVSS | high polyreactivity
9 | QVQLVESGGGLVQAGGSLRLSCAASGITFFRYTMGWYRQAPGKEREFVAAINIRGTRTYYADSVKGRFTISRDNAKNTVYLQMNSLKPEDTAVYYCAAGYAYRYSGLSYDVDYWGQGTQVTVSS | high polyreactivity
10 | QVQLVESGGGLVQAGGSLRLSCAASGITFFTYGMGWYRQAPGKERELVASINWSGGTYYADSVKGRFTISRDNAKNTVYLQMNSLKPEDTAVYYCAAETSNSTQEMGYWGQGTQVTVSS | low polyreactivity
11 | QVQLVESGGGLVQAGGSLRLSCAASGITFFTYTMGWYRQAPGKERELVARIRWDGGSTYYADSVKGRFTISRDNAKNTVYLQMNSLKPEDTAVYYCAADYPYSTYDYWGQVTQVTVSS | low polyreactivity
12 | QVQLVESGGGLVQAGGSLRLSCAASGITFGAYAMGWYRQAPGKEMELVAVITRGADTYYADSVKGRFTISRDNAKNTVYLQMNSLKPEDTAVYDCAAEIDLPYYYGSDDDDYWGQGTQVTVSS | high polyreactivity
13 | QVQLVESGGGLVQAGGSLRLSCAASGITFGDYAMGWSRQAPGKERELVAGINWSGDGTYYADSVKGRFTISRDNAKNTVYLQMNSLKPEDTAVYYCAAETFYDYGGYDYWGQGTQVTVSS | low polyreactivity
14 | QVQLVESGGGLVQAGGSLRLSCAASGITFGFNAMGWYRQAPGKERELVAAITWSVGRTYYADSVKGRFTISRDNAKNTVYLQMNSLKPEDTAVYYCAKEFVAGDDYFAYDYWGQGTQVTVSS | low polyreactivity
15 | QVQLVESGGGLVQAGGSLRLSCAASGITFGGNAMGWYRQDPGKERELVAAISSSGGSTYYADSVKGRFTISRDNAKNTVYLQMNSLKPEDTAVYYCAARNRYPLRFYYWGQGTQVTVSS | high polyreactivity
16 | QVQLVESGGGLVQAGGSLRLSCAASGITFGLYAMGWYRQAPGKERELVAAITWRGGSTYYADSVKGRFTISRDNAKNTVYLQMNSLKPEDTAVYYCAADFSGYSDDYWGQGTQVTVSS | high polyreactivity
17 | QVQLVESGGGLVQAGGSLRLSCAASGITFGRKTMGWYRQAPGKERELLAAIDSGGNTYADSVKGRFTISRDNAKNTDYLEMNSLKPEDTAVYYCAVDGGEFYSYGYWGLGTQVTVSS | low polyreactivity
18 | QVQLVESGGGLVQAGGSLRLSCAASGITFGRNTMAWYIQAPGKERELVAAIDSGGNTYADSVKGRFTISRDNAKITVDLQMNSLKQEDTSVYYCAVVWVWDVWFLVYYWGQGTQVTVSS | low polyreactivity
19 | QVQLVESGGGLVQAGGSLRLSCAASGITFGRNTMGWSRQAPGKEREMVASITRGGNTNYADSVKGRFTISRDNAKNTVYLQLNSLKPEDTAVYYCAARSTYRVSHVDYWGQGTQVTVSS | low polyreactivity
20 | QVQLVESGGGLVQAGGSLRLSCAASGITFGRNTMGWYRPAPGKERELVAAIDSGGNTYADSVKGRFTISRDNAKNTVYLQMNSLKAEDTAVYYCAVDGGEFSSYGYWGQGTQVTVSS | low polyreactivity
21 | QVQLVESGGGLVQAGGSLRLSCAASGITFGRNTMGWYRQAPGKERELVASINKSGGSTYYADSVKGRFTISRDNAKNTVYLQMNSLKPEDTAVYYCAARTGWPRVGFLYPAHVGFDYWGQGTQVTVSS | low polyreactivity
22 | QVQLVESGGGLVQAGGSLRLSCAASGITFGRNTMGWYRQPPGKERELVAAIDSGGNTYADSVKGRFTISRDNAKNTVYLQMNSLKPEDTAVYYCAVDGGEFSSYGYWVQGTQVTVSS | low polyreactivity

Row | Sequence | polyreactivity (PSR sort gate)
23 | QVQLVESGGGLVQAGGSLRLSCAASGITFGRYAMGWYRQAPGKERELVAAISWSGGSTYYADSVKGRFTISRDNANNTVYLQMNRLKPEDTAVYYCNVVFRFNSFDYYYWGQGSQVTVSS | high polyreactivity
24 | QVQLVESGGGLVQAGGSLRLSCAASGITFGRYVMGWYRQAPGKERELVATISSGGRTKYADSVKGRFSISRDNAKNTVYLQMNSLKPEDTAGYYCNAESPKWPWYSGFDYWGQGTQVTVSS | high polyreactivity
25 | QVQLVESGGGLVQAGGSLRLSCAASGITFGSYAMGWYRQAPGKERELVAAITWRGGTTYYADSVKARFTISRDNAKNTVYLQMNSLKPEDTAVYYCNTAWTGYPRYQYGGNYWGQGTQVTVSS | high polyreactivity
26 | QVQLVESGGGLVQAGGSLRLSCAASGITFGVNTMGWYRQAPGKERELVAAITWRGGSTYYADSVKGRFTISRDNAKNTVYLQMNSLKPEDTAVYYCAAQPIWPGGQELDYWGQGTQVTVSS | low polyreactivity
27 | QVQLVESGGGLVQAGGSLRLSCAASGITFGYYAMGWYRQAPGKERELVASISWSGDSTYYADSVKGRFTISRDNAKNTVYLQMNSLKPEDTAVYYCNRGSSWEYGAEYNYWGQGTQVTVSS | low polyreactivity
28 | QVQLVESGGGLVQAGGSLRLSCAASGITFGYYDMGWYRQAPGKERELVAAISRGGGRTYYADSVKGRFTISRDNAKNTVYLQMNSLKPEDSAVYYCAAPSRYGGRGRPTLYDYWGQGTQVTVSS | high polyreactivity
29 | QVQLVESGGGLVQAGGSLRLSCAASGITFHGYAMGWDRQAPGKERELVAAISDSGSSTYYADSVKGRFTISRDNAKNTVYLQMNSLKPEHTAVYYCAAVSGFYDQYDYWGQGTQVTVSS | low polyreactivity
30 | QVQLVESGGGLVQAGGSLRLSCAASGITFHRYDMVWYRQAPGKERELVADITWSGGSTYYADSVKVRFTISRDNAKNTVYLQMNSLKPEDTAVYYCAADASTYTYTPYDYWGQGTQVTVSS | low polyreactivity
31 | QVQLVESGGGLVQAGGSLRLSCAASGITFIGYVMGWYRQAPGKERELVAAISRSGASTYYADSVKGRFTISRDNAKNTVYLQMNSLKPEDTAVYYCATVRYHPAYYYWGQGTQVTVSS | high polyreactivity
32 | QVQLVESGGGLVQAGGSLRLSCAASGITFINYDMGWYRQAPGKERELVAAISQIGTSTYYADSVKGRFTISRDNAKNTVYLQMNSLKPEDTAVYYCNARYISTGFRYNYWGQGTQVTVSS | high polyreactivity
33 | QVQLVESGGGLVQAGGSLRLSCAASGITFIRYAMGWYRQAPGKERELVAVITRSGGRTYYADSVKGRFTISRDNAKNTVYLQMNSLKPEDTAVYYCAARAYGYDEYEYWGQGTQVTVSS | high polyreactivity
34 | QVQLVESGGGLVQAGGSLRLSCAASGITFITYAMGWYRQAPGKERELVAAISIRGGSTYYADSVKGRFTISRDNAKNTVYLQMNSLKPEDTAVYYCAKDNRSYTYDYWGQGTQVTVSS | low polyreactivity
35 | QVQLVESGGGLVQAGGSLRLSCAASGITFITYVMGWYRQAPGKERELVAAISLRGGRTSYADSVKGRFTISRDNAKNTVYLQMNSLKPEDTAVYYCAARAYYTRYDFWGQGTQVTVSS | high polyreactivity
36 | QVQLVESGGGLVQAGGSLRLSCAASGITFKRNAMGWYRQAPGKERELVAAISTTGGRTYYADSVKGRFTISRDNAKNTVYLQMNSLKPEDTAVYYCAARGGPVTYDYWGQGTQVTVSS | high polyreactivity
37 | QVQLVESGGGLVQAGGSLRLSCAASGITFKTYDMGRYRQAPGKERELVATINRGSRTNYADSVKGRFTISRDNAKNTVYLQMNSLKPEDTAVYYCSAHDTTFIPSPDGDYLGQGTQVTVSS | low polyreactivity
38 | QVQLVESGGGLVQAGGSLRLSCAASGITFKYNAMAWYRQAPGKEMELVAAISSGGNTYYADSVKGRFTISRDNAKNTVYLQMNSLKPEDTAVYYCAAPSYDTLWHDYWGQGTQVTVSS | low polyreactivity
39 | QVQLVESGGGLVQAGGSLRLSCAASGITFKYYAMGWYRQAPGKERELVAAITSGTRTNYADSVKGRFTISRDNAKNTVYLQMNSLKPEDTAVYYCAKVGSWYTSHRFGYWGHGTQVTVSS | high polyreactivity
40 | QVQLVESGGGLVQAGGSLRLSCAASGITFLDNDMGWYRQAPVKERELVAAITSGVSTYYADSVKGRFTISRDNAKNTVYLQMNSLKPEDTAVYYCAADRPDVAGDYGGQGTQVTVSS | low polyreactivity
41 | QVQLVESGGGLVQAGGSLRLSCAASGITFLDNVMGWYRQAPGKERELVADINSIGTSTSYADSVKGRFTISRDNAKNTVYLQMNSLKPEDTAVYYCAADTGLEDYDYWGQGTQVTVSS | low polyreactivity
42 | QVQLVESGGGLVQAGGSLRLSCAASGITFLNYAMGWYRQAPGKERELVAAISWSGGRTYYADSVKGRFTISRDNGKNTVYLQMNSLKPEDTAVYYCAADRGVNSYGYWGQGTQVTVSS | high polyreactivity
43 | QVQLVESGGGLVQAGGSLRLSCAASGITFLNYAMGWYRQAPGKERELVAAISWSRGRTYYADSVKGRFTISRDNAKNTGYLQMNSLKPEDTAVYDCAADRGVNSYGYWGQGTQVTVSS | high polyreactivity
